Measurements as given in the nanobody polyreactivity screen of Harvey et al. (2022).

experiment: yeast display, Sf9 membrane polyspecificity reagent, FACS + sequencing; frameworks hold sequencing errors
Method in brief: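 Sorting gates, low and high (top ~1%), were placed on anti-HA fluorescence to track expression and on streptavidin fluorescence to track reagent binding. A clone's polyreactivity label is taken from the gate it came out of. The reagent was 10% biotinylated, detergent-solubilized Sf9 membrane, applied for 1 hour at 4 °C to galactose-induced yeast display cells.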

Row | Sequence | polyreactivity (PSR sort gate)
1 | QVQLVESGGGLVQAGGSLRLSCAASGRTFNSYAMGWYRQAPGKEREFVASITFSTGRTYYADSVKGRFTISRDNAKNTVYLQMNSLKPEDTAVYYCNVRFVTGYRYRYGDDYWGQGTQVTVSS | low polyreactivity
2 | QVQLVESGGGLVQAGGSLRLSCAASGRTFNSYPMGWYRQAPGTERELVAAINYRGTSTYYSDSVKGRFTISRDNAMNTVYLQMNSLKPEDTAVYYCNARQTRSSRINYPEGIYNYWGQGTQVNVSS | high polyreactivity
3 | QVQLVESGGGLVQAGGSLRLSCAASGRTFNTYAMGWYRQAPGKERELVAAISSGGRTYYADSVKGRFTISRDNAKNTVYLQMNSLKPEDTAVYYCAAKPFQYRTVYEYWGQGTQVTVSS | high polyreactivity
4 | QVQLVESGGGLVQAGGSLRLSCAASGRTFNVNAMGWYRQAPGKERELVAAISSSGTTNYADSVKGRFTISRDNAKNTVYLQMNSLKPEDTAVYYCNKRWRDKYPQYDYWGQGTQVTVSS | low polyreactivity
5 | QVQLVESGGGLVQAGGSLRLSCAASGRTFNWYAMGWYRQAPGKERELVAAISYSGGGTYYADSVKGRFTISRDNAKNTVYLQMNSLKPEDTAVYYCAAETYYAPYVYWGQGTQVTVSS | high polyreactivity
6 | QVQLVESGGGLVQAGGSLRLSCAASGRTFNWYAMGWYRQAPGKERELVAAISYSGGGTYYADSVKGRFTISRDTAKNTVYLQMNSLKPEDTAVYYCAAETYYAPYDYWGQGTQVTVSS | high polyreactivity
7 | QVQLVESGGGLVQAGGSLRLSCAASGRTFNWYAMGWYRQAPGKESELVAAISSRGGSTYADSVKGRFTISRDNAKNTVYLQMNSLTPEDTAVYYCNADLLPADAPLWVTGGDYWGQGTQVTVSW | low polyreactivity
8 | QVQLVESGGGLVQAGGSLRLSCAASGRTFNYYAMGWYRQAPGKEREFVAANSWSVGSTYYADSVKGRFTISRDNAKNTVYLQMNSLKPEDTAVYYCATEVPVGVQRHIFNYYYWGQGTPVTVSS | low polyreactivity
9 | QVQLVESGGGLVQAGGSLRLSCAASGRTFNYYAMGWYRQAPGKERELVAAISSSGGRTYYADSVKGRFTISRDNAKNTVYLQMNSLKPEDTAVYYCAADSFYYRPEYDYWGQGTQVTVSS | low polyreactivity
10 | QVQLVESGGGLVQAGGSLRLSCAASGRTFNYYAMGWYRQAPGKERELVATITFSGDGSTYYAHSVKGRFTISRDNAKNTVYLHMNSLKPEDTAVYYCTADIEKSYNYWGQGTQVTVSS | low polyreactivity
11 | QVQLVESGGGLVQAGGSLRLSCAASGRTFPAYTMGWYRQAPGKERELVAAINWSGGSTYYADSVKGRFTISRDNAKNTVYLQMNSLKPEDTAVYYCARTSHYYGFRSYGTLDYWGQGTQVTVSS | high polyreactivity
12 | QVQLVESGGGLVQAGGSLRLSCAASGRTFPFYAMGWYRQAPGKERELVAAISISGGSTYYADSVKGRFTISRDNAKNTVYLLMNSLKPEDTAVYYCATDGLYLSWQYSWEELYYWGQGTQVTVSS | high polyreactivity
13 | QVQLVESGGGLVQAGGSLRLSCAASGRTFPFYAMGWYRQAPGKERELVADITSSGGSTYYADSVKGRFTISRDNAKNTVYLQMNSLKPEDTAVYFCNSFRGAQGSDAYDWGQGTQVTVSS | low polyreactivity
14 | QVQLVESGGGLVQAGGSLRLSCAASGRTFPGNAMGWYRQAPGKERELVAAISWSGTRTYYADSVKGRFTISRDNAKNTVYLQMNSLKPEDTAVYYCNRRYWSFFPYDYWGQGTQVTVSS | high polyreactivity
15 | QVQLVESGGGLVQAGGSLRLSCAASGRTFPGNDMGWYRQAPGKERELVAAISSDDSTYYADSVKGRFTISRDNAKNTVYLQMNSLKPEDTAVYYCNAEYYEGYIGVPGSYWPYEYWGQGTQVTVSS | low polyreactivity
16 | QVQLVESGGGLVQAGGSLRLSCAASGRTFPGYAMGWYRQAPGKERELVAAISWSGTSTYYADSVKGRFTISRDNAKNTVYLQMNSLKPEDTAVYYCNKVYTYSAPYYYWGQGTQVTVSS | high polyreactivity
17 | QVQLVESGGGLVQAGGSLRLSCAASGRTFPGYAMGWYRQAPGKERELVATITGNGGSTYYADSVKGRFTISRDNAKNTVYLQMNSLKPDDTAVYYCAAGRRRPYVRAYSGTDYWGQGTQVTVSS | low polyreactivity
18 | QVQLVESGGGLVQAGGSLRLSCAASGRTFPGYAMGWYRQAPGKEREVVAGISYRGGSTYYADSVKGRFTISRDNPKNTVYLQMNSLKPVDTAVYYCARDYSRHKGDYWGQGTQVTVSS | low polyreactivity
19 | QVQLVESGGGLVQAGGSLRLSCAASGRTFPLNAMGWYRQAPGKERELVARISSNGGSTYYADSMKGRFTISRDNAKNTVYLQMNSLKPEDTAVYYCAARYYSRRGLYYWGQGTQVTVSS | high polyreactivity
20 | QVQLVESGGGLVQAGGSLRLSCAASGRTFPPYAMGWYRQGPGKERELVASIRRGGSTHYADSVKRRFTISRDNAKNTVYLQMNSLQPEDTAVYYCAAYYGGWSTYGAGYGGFYYWGQGTQVTVSS | high polyreactivity
21 | QVQLVESGGGLVQAGGSLRLSCAASGRTFPRNGMGWYRQAPGKERELVAAISWSGGRTYYADSVKGRFTISRDNAKNTVYLQMNSLKPEDTAVYYCNALYFRKGGYWGQGTQVTVSS | high polyreactivity
22 | QVQLVESGGGLVQAGGSLRLSCAASGRTFPSNVMGWYRQAPGKEREFVAAITTRGGNTRYADSVKGRFTISRDNAKNTVYLQMNSLKPEDTAVFYCAAKVKPGYDYWGQGTQVTVSS | low polyreactivity

Row | Sequence | polyreactivity (PSR sort gate)
23 | QVQLVESGGGLVQAGGSLRLSCAASGRTFPVYAMGWYRQAPGKEREFVAAISRRGGSTYYADSVKGRFTISRDNAKNTVYLQMNSLKPQDTAVYYCAKVYYLYGAQHNPGRYDYWGQGTQLTVSS | high polyreactivity
24 | QVQLVESGGGLVQAGGSLRLSCAASGRTFPVYAMGWYRQAPGKERELVAAIRFSGGSTYYADSVKGRFTISRDNAKNTVYLQMNSLKPEDTAVYYCAADDWSWSTAWVPWYNYDYWGQGTQVTVSS | low polyreactivity
25 | QVQLVESGGGLVQAGGSLRLSCAASGRTFPYNAMGWYRQAPGKERELVAAISGRGGSTYYADSVKGRFTISRDNAKNTVYLQMNSLKPEDTAVYYCAARLPWSYYRTQGYNYWGQGTQVTVSS | high polyreactivity
26 | QVQLVESGGGLVQAGGSLRLSCAASGRTFPYNAMGWYRQAPGKERELVAAISSGGSTNYADSVKGRFTISRDNAKNTVYLQMNSLKPEDTAVYYCAVTGWPRYTWYSYGYWGQGTQVTVSS | low polyreactivity
27 | QVQLVESGGGLVQAGGSLRLSCAASGRTFPYNAMGWYRTAPGKERELVAAISSGGSTNYADSVKGRFTISRDNAKNTVYLQMNSLKPEDTAVYYCAVTGWPRYTWYSYGYWGQGTQVTVSS | low polyreactivity
28 | QVQLVESGGGLVQAGGSLRLSCAASGRTFPYNDMGWYRQAPGKERQLVAGISLSGGSTFYADSVKGRFTISRDNAKKTVYLQRNSLKAEDTAVYYCNAPGGRYVWTDDYDYWGQGTQVTVSS | high polyreactivity
29 | QVQLVESGGGLVQAGGSLRLSCAASGRTFPYYAMGWSRQAPGKERELVAAITRGGNTNYADSVKGRFTISRDNAKNTVYLQMNSLKPEDTAVYYCAALVRAGPRRGTIYDYWGQGTQVTVSS | high polyreactivity
30 | QVQLVESGGGLVQAGGSLRLSCAASGRTFPYYAMGWYRQAPGKERELVAAISSSGGSTYYADSVKARFTISGDNAKNTVYLQMNSLKPEDTAVYDCTRYSRLYLTDDDYWGQGTQVTVSS | high polyreactivity
31 | QVQLVESGGGLVQAGGSLRLSCAASGRTFPYYTMGWYRQAPGKERELVAAISSSGGSTYYADSVKGRFTISRDNAKNTVYLQMNSLKPEDTAVYYCNAGYRWTHFGSWGQGTQVTVSS | low polyreactivity
32 | QVQLVESGGGLVQAGGSLRLSCAASGRTFQDNAMGWYRQAPGKEREFVAAISWSGDSTYYADSVKGRFTISRDNAKNTVYLQMNSLKPEDTAVYYCAASRVIPSYPYYKYDYWGQGTQVTVSS | low polyreactivity
33 | QVQLVESGGGLVQAGGSLRLSCAASGRTFQDNAMGWYRQAPGKERELVAAIRDNGGSTYYADSVKGRFTISRDNAKNTVYLQMNSLKPEDTAVYYCAADQGTGSYDYWGQGTQVTVSS | low polyreactivity
34 | QVQLVESGGGLVQAGGSLRLSCAASGRTFQDNAMGWYRQAPGKERELVAAISWRGGSTNYADSVKGRFTISRDNAKNTVYLQMNSLKPEDTAVYYCAKGIRRWYGGSDYWGQGTQVTVSS | low polyreactivity
35 | QVQLVESGGGLVQAGGSLRLSCAASGRTFQEYAMGWYRQAPGKERELVADISDGGSTNYADSVKGRFTISRDNAKNTVYLLMKSLKPEDTAGYYCAAARPGWRVGYDYWGQGTQVTVSS | low polyreactivity
36 | QVQLVESGGGLVQAGGSLRLSCAASGRTFQFYTMGWYRQAPGKERELVAVITVSSASTFYADSVKGRFTISRDNAKNTVYLQMNSLKPEDTAVYYCAAGLVLNVGMDSWGQGTQVTVSS | low polyreactivity
37 | QVQLVESGGGLVQAGGSLRLSCAASGRTFQGNVMGWYRQAPGKERELVAAISRSGSRTYYADSVKGRFTISRDNAKNTVYLQMNSLKPEDTAVYYCNALKSKRRQVIWYDYWGQGTQVTVSS | high polyreactivity
38 | QVQLVESGGGLVQAGGSLRLSCAASGRTFQKNTMGWYRQARGKEMQLVAAIDFSATTTYYADSVKGRFTISRDNAKNTVYLQMNSLKPEATAVYYCAARWSYPRWELDYWGQGTQVTVSS | high polyreactivity
39 | QVQLVESGGGLVQAGGSLRLSCAASGRTFQLNAMGWYRQAPGKEREVVAAISTRGGSTYYADSVKGRFTISRDNAKNTVYLQMHRLKPEDTAVYYCAKDPSFTRGYKEGGGYDYWGQGTQVTVSS | high polyreactivity
40 | QVQLVESGGGLVQAGGSLRLSCAASGRTFQRYAMGWYRQAPGKERELVAAITSRGGSTYYADSVKGRFTISRDNAKNTVYLQMNSLKPEDTAVYYCNARSRRTHSEPQSEMDYWGQGTQVTVSS | high polyreactivity
41 | QVQLVESGGGLVQAGGSLRLSCAASGRTFQRYTMGWYRQAPGKERELVASISRSGGSTYYADSVKGRFTISRDNAKNTVYLQMNSLKPEDTAVYYCATRSLFWNRNHYRVSSPVLFDYWGQGTQVTVSS | high polyreactivity
42 | QVQLVESGGGLVQAGGSLRLSCAASGRTFQTNDMGLYRKAPGKERELVAAISRRGGSTYYADSVKGRFTISRDNAKNTVYLQMNSLKPEDTAVYYCAATRLSRYDYWGQGTQVTVSS | low polyreactivity
43 | QVQLVESGGGLVQAGGSLRLSCAASGRTFQVNAMGWYRQAPGKERELVAAISASDGSTYADSVKGRFTISRDNAKNTVYLQMNSLKPEDTAVYYCNKAAYGGHRTSEQVGWVYLYDYWGQGTQVTVSS | low polyreactivity
